We go through one molecule from US20180312587A1 (ADURO BIOTECH HOLDINGS EUROPE B V, published 2018).

For one assay, the target named is T1, human SIRPγ (human, UniProt Q9P1W8 29-387).
T1 construct: on transfected CHO-K1 cells; also called hSIRPγ
As to the kind of experiment: CELISA, CHO-K1 transfectants; extrapolated. The protocol: Binding of the humanized antibodies to hSIRPα was studied in CELISA format. Binding of the hSIRPα antibodies to human SIRPαV1, SIRPαV2, hSIRPβ1, and hSIRPγ was confirmed using CHO-K1 cells that had been transiently transfected with cDNA encoding the full length open reading frame of each of these respective targets subcloned into the pCI-neo vector. CHO-K1.hSIRPαV1, CHO-K1.hSIRPαV2, CHO-K1.hSIRPβ1, and CHO-K1.hSIRPγ cells were seeded in culture medium (DMEM-F12 (Gibco) supplemented with 5% New Born Calf Serum (BioWest) and Pen/Strep (Gibco)) in 96-well flat-bottom tissue culture plates and incubated at 37° C., 5% CO₂ and 95% humidity until cell layers were confluent. Subsequently, culture medium was removed and cells were incubated for 1 hour at 37° C., 5% CO₂ and 95% humidity with purified hSIRPα antibodies (10 μg/mL and dilutions thereof). Next, cells were washed with PBS-T and incubated for 1 hour at 37° C., 5% CO₂ and 95% humidity with goat-anti-human IgG-HRP conjugate (Jackson Immuno Research) or goat-anti-mouse IgG-HRP (Southern Biotech). Subsequently, cells were washed three times with PBS-T and anti-hSIRPα immunoreactivity was visualized with TMB Stabilized Chromogen (Invitrogen). Reactions were stopped with 0.5 M H₂SO₄ and absorbances were read at 450 and 610 nm. […] In Table 13 the EC50 values of the humanized hSIRPα antibodies are depicted.
Table 13: Binding of humanized and parental hSIRPα.50A antibodies to CHO-K1.hSIRPαV1, CHO-K1.hSIRPαV2, CHO-K1.hSIRPβ1, and CHO-K1.hSIRPγ cells.

The next assay concerns the target T2, hSIRP-VγC1βC2β (human, UniProt O00241 30-398).
T2 chain: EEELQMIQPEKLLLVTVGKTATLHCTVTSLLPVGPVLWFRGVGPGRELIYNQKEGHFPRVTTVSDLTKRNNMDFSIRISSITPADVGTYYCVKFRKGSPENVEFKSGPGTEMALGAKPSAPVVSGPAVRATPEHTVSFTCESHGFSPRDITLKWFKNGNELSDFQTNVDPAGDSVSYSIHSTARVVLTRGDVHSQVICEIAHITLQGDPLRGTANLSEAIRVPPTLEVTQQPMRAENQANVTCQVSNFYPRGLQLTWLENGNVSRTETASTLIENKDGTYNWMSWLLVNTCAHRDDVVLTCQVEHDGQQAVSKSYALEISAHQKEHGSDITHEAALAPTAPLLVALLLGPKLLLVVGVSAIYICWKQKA
As to the kind of experiment: CELISA, CHO-K1 transfectants, domain exchange study. The source says: Based on the fold of SIRPα/β1/γ, the extracellular region can be subdivided into three separate domains: the Ig-like (immunoglobulin-like) V-type (IgV), Ig-like C1-type (IgC1), and Ig-like C2-type (IgC2) domain. The IgV domain is also known as the ligand-binding N-terminal domain of SIRPα and SIRPγ (which binds to CD47). The human SIRPβ1/γ mutants were designed based on the full length hSIRPβ1 sequence (SEQ ID NO: 38) and each individual Ig-like domain was substituted for the equivalent domain of human SIRPγ (SEQ ID NO: 40). […] Binding of hSIRPα.40A to the exchange mutants was tested using CELISA. To this end, CHO-K1 cells were transiently transfected, using Lipofectamine 2000, with the pCI-neo vectors encoding hSIRPαV1, hSIRPαV2, hSIRPβ1, hSIRP-VγC1βC2β, hSIRP-VβC1γC2β, and hSIRP-VβC1βC2γ, respectively. The transfected cells were cultured at 37° C., 5% CO₂ and 95% humidity in medium (DMEM-F12 (Gibco) with 5% New Born Calf serum (Biowest) and Pen/Strep (Gibco)) until confluent. Subsequently, cells were trypsinized and seeded in 96-well flat-bottom tissue culture plates and cultured at 37° C., 5% CO₂ and 95% humidity in culture medium until confluent. Then, culture medium was removed and cells were incubated for 1 hour at 37° C., 5% CO₂ and 95% humidity with hSIRPα.40A, hSIRPα.50A, and anti-hSIRPα clone SE5A5 antibodies. Next, cells were washed with PBS-T and incubated for 1 hour at 37° C., 5% CO₂ and 95% humidity with goat-anti-mouse IgG-HRP conjugate (Southern Biotech). After that, cells were washed three times with PBS-T and anti-hSIRPα immunoreactivity was visualized with TMB Stabilized Chromogen (Invitrogen). Reactions were stopped with 0.5 M H₂SO₄ and absorbances were read at 450 and 610 nm.

Assay [1] deals with T3, hSIRPα expressed on primary human cells (human, UniProt P78324 31-504).
T3 construct: whole, on cells; also called hSIRPα on primary human CD14+ monocytes; on primary human granulocytes
As to the kind of experiment: flow cytometry, primary CD14+ enriched monocytes, donor 2. The procedure: Next, the binding of hSIRPα.50A to hSIRPα expressed on primary human CD14⁺ monocytes was investigated. In addition, the ability of hSIRPα.50A to block the interaction between hSIRPα and recombinant hCD47/Fc-protein was assessed. For this purpose, CD14+ monocytes were isolated from Ficoll-purified human peripheral blood mononuclear cells (PBMCs) using RosetteSep human monocyte enrichment cocktail (Stemcell). The percentage of monocytes present after the enrichment was determined by flow cytometry on the FACSVerse (BD Biosciences) based on CD14 staining using an APC-Cy7-conjugated mouse-anti-human CD14 detection antibody (BD Biosciences). […] After this labeling procedure, cells were washed two times, resuspended in PBS/1% BSA containing 0.1 μg/mL DAPI (BioLegend), and analysed by flow cytometry on the FACSVerse (BD Biosciences). Data were processed and analysed with FlowJo V10 software (FlowJo, LLC).
To assess the blocking ability of hSIRPα.50A, CD14+ enriched monocytes cells were seeded in 96-well round bottomed tissue culture plates and incubated for 45 minutes with FcR Blocking Reagent (Miltenyi Biotec) and hSIRPα.50A antibody (200 μg/mL and dilutions thereof) in PBS/1% BSA at 4° C. […] After this labeling procedure, cells were washed two times, resuspended in PBS/1% BSA containing 0.1 μg/mL DAPI (BioLegend), and analysed by flow cytometry on the FACSVerse (BD Biosciences). […]
Background: In flow cytometry, cells or beads pass a laser one at a time.

One may read the EC50 as the midpoint of the concentration-response curve.

T3 sequence (P78324 31-504): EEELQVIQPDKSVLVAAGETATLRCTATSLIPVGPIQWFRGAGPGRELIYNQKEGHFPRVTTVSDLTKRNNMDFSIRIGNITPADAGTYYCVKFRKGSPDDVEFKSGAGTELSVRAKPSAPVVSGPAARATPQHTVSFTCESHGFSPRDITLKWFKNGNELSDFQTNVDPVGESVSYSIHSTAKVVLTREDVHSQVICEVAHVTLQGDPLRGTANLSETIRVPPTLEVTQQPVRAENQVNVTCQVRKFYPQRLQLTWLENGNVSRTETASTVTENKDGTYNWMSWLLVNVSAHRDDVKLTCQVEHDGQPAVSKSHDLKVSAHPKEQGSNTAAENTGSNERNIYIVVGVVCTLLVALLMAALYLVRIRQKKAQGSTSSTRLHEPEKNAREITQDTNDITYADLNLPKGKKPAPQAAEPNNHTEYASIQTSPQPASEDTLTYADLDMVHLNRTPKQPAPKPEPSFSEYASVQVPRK
T1 sequence (Q9P1W8 29-387 limits assumed): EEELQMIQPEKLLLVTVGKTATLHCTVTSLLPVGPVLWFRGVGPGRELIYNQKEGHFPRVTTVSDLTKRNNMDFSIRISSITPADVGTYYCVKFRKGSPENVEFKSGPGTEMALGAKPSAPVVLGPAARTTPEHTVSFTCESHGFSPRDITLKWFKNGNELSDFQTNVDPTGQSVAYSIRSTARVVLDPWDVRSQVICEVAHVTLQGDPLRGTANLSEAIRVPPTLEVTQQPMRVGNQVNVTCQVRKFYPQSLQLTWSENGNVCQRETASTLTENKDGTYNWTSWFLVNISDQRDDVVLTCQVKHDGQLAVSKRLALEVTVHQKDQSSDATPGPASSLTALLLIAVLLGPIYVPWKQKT

B1: hSIRPα.50A (antibody, V domains shown)
VH: QVQLQQSGPELVKPGASVRISCKASGFTFTNYYIHWVKQRPGQGLEWIGWIYPGNVNTKYNEKFKAKATLTADKSSTTAYMQLSSLASEDSAVYFCARPTIIATDFDVWGAGTTVTVSS
VL: DIVMTQSHKFMSTSVGDRVNITCKASQGVGTAVGWYQQKPGQSPRLLIYWASTRHTGVPDRFTGSGSGTDFSLAISNVQSEDLADYFCQQYSTYPFTFGGGTNLEIK
notes: light chain constant domain not tied; also called mouse hSIRPα.50A; hSIRPα.50A.mIgG1
Take B1: the EC50 with human SIRPγ was 1.25 nM; in the assay with hSIRP-VγC1βC2β it was 2.52 nM; in assay [1], 3.08 nM.
